# Measured values taken from paper PMC6098157.
# Target: TIR1 (transport inhibitor response 1), codon-optimized rice TIR1 (rice)
binder,measurement,value
mAID^K→R-vhhGFP4^K→R (lysine-less mAID-nanobody) (VHH) ACPRDPARPPARAQVVGWPPVRSYRRNVMVSCQRSSGGPEAAAFVRVSMDGAPYLRRIDLRMYRMDQVQLVESGGALVQPGGSLRLSCAASGFPVNRYSMRWYRQAPGREREWVAGMSSAGDRSSYEDSVRGRFTISRDDARNTVYLQMNSLRPEDTAVYYCNVNVGFEYWGQGTQVTVSS,"GFP-PCNA left at 22 hpf in zebrafish retinal neuroepithelium cells expressing TIR1 and mAID-nanobody, with 0.5 mM IAA as the bridging auxin (% of original GFP-PCNA levels)",< 20
same,"GFP-PCNA left at 22 hpf in zebrafish retinal neuroepithelium cells expressing TIR1 and mAID-nanobody, with 0.5 mM NAA as the bridging auxin (% of original GFP-PCNA levels)",12
